Measured values from article PMC10710730, “ProNGF promotes brain metastasis through TrkA/EphA2 induced Src activation in triple negative breast cancer cells” (Experimental Hematology & Oncology, 2023).

Biological target: T1, EphA2, endogenous in MDA-MB-231 cells (human (endogenous in MDA-MB-231), UniProt P29317 24-976)
T1 construct: EphA2 receptor, endogenous in the human breast cancer cell line MDA-MB-231; also called EphA2 receptor; source: endogenous, MDA-MB-231 cells
Assay: proximity ligation; Duolink in Situ-Red kit rabbit/goat on PFA-fixed cells on collagen I coated slides; TrkA/EphA2 red dots per cell counted; cells treated with proNGF (0.5 nM, 0 to 120 min), in MDA-MB-231 TrkA also with p75NTR siRNA
Settings: partners not purified

T1 sequence (P29317 24-976): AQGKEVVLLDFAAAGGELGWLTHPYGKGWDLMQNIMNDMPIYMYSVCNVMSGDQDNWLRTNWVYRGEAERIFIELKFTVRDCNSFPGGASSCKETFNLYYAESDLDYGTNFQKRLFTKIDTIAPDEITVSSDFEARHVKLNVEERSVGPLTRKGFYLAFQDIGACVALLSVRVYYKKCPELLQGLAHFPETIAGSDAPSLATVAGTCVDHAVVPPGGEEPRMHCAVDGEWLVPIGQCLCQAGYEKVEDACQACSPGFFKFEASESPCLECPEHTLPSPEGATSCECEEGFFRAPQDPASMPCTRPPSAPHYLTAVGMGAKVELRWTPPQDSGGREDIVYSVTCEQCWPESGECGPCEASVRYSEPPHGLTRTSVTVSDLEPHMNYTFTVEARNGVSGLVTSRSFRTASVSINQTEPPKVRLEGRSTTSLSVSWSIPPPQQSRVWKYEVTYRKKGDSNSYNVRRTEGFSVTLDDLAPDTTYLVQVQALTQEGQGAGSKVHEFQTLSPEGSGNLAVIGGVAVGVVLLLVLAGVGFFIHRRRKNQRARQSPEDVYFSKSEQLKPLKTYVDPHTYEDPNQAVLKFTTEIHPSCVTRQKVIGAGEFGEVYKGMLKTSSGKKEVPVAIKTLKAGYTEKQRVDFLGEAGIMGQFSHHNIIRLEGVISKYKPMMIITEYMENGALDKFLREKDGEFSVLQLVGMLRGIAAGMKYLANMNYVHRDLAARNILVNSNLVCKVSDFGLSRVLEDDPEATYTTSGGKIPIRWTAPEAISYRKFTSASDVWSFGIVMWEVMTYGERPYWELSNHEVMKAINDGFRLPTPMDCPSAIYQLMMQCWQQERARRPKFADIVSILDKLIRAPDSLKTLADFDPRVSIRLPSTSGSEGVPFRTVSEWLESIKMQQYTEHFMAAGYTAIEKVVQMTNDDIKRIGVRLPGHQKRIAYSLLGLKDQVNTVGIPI

fold increase of TrkA/EphA2 PLA signal, proNGF 60 min over 0 min: 2 fold
B1: TrkA (tyrosine kinase receptor TrkA, Tropomyosin kinase A), overexpressed in MDA-MB-231 cells (receptor)
chain: not shown
notes: TrkA, receptor of NGF and proNGF; also called MDA-MB-231-TrkA; MDA-MB-231 HA-TrkA
